The record followed here is the supplement of paper PMC12042874.

± gives the uncertainty stated by the source.

This data set is described as follows: amyloid nucleation score (Sup35N fusion, yeast selection) (log enrichment); library NNK2; higher = more nucleation; inactive = no reads after selection. In outline: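 After 24 hours of induction with 100 μM copper sulfate, psi-negative yeast expressing peptides of 20 random codons fused to Sup35N were grown for 7 days at 30°C on medium lacking adenine and uracil. Input and output plasmid inserts were sequenced with Illumina, and sequences with under 100 input reads were discarded. Scores for nucleation are the DiMSum log enrichment of output over input reads, centred on the mode score of non-aggregating sequences.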

The substance EFNLLRYSVETNIISEKKLV showed an amyloid nucleation score of 0.129 ± 0.54.
The same measure for FHIDTIRTVRLAWYTTEHWQ: 5.34 ± 0.07; for GDTYMGVYANLVMLALYGPG: 5.2 ± 0.088; for DRYYVFLILWTRGNTRRPTG: -1.02 ± 0.39.
The result for VFVWIGLGWVTSLLSLYTNG reads “inactive”; that for YSLYEYFKSHLRKACVMPGW, “inactive”.
For LDTARVNGDSYWSL, the amyloid nucleation score amounted to 3.57 ± 0.11.
In the case of VVWGERVHGIWLMCYCNWTG, the amyloid nucleation score is 5.51 ± 0.091.
The result for TYNGMFTQLAFG reads 3.48 ± 0.07; that for TQIFYSLRILLVDKLVSCGA, -0.787 ± 0.39.
As to KLYVAIMNSWILGKVGSYNG, the amyloid nucleation score turned out to be 6.214 ± 0.034.
The result for TKMYVD reads -0.573 ± 1.1.
The same measure for AINWYYMHISMLECPAKNGS: -0.876 ± 0.76; for RLYNKALYANFKNYSLTCFS: -0.39 ± 0.64.
RVMSHT: the amyloid nucleation score was 0.658 ± 0.51.
The result for FINRPVKRKLNSSNIYICV reads 3.16 ± 0.14.
Consider VVRCRWQDTRTVSQGWVIP, for which the amyloid nucleation score worked out at 0.97 ± 0.33.
On to GLSAHYA, for which the amyloid nucleation score stood at 0.113 ± 1.1.
The same measure for GNNIVDPMLYLEGFKFSPIP: 0.082 ± 0.65; for MSIWCNSIDRTFIDNLRPVF: -1.43 ± 0.62; for HGYSWCCFHVGS: 8.926 ± 0.054.
The result for QVMMIWCIWDY reads 6.949 ± 0.042; that for FPFKCTSQDSFFFNFKWSRR, 3.25 ± 0.17; that for MYCLFFFMWGCYYYTIFRSV, “inactive”.
The result for ALGVPLYMIEGIGKCLLSLK reads 1.24 ± 0.43.
On to CYFSLQNSKDMRDLELDAIN, for which the amyloid nucleation score was -1.46 ± 0.55.
The same measure for SENIRDFVLKWCYLDTHDRL: -0.261 ± 1.1; for VCGWFHGHWGTWWDVQQRKR: 2.3 ± 0.16.
With IDGRDSFCQGGNRTCSKGCC, the amyloid nucleation score is -0.303 ± 0.65.
The same measure for YTAIVRFWWVTQSVQFKNRD: -0.143 ± 0.8; for ASLFFM: 0.707 ± 0.34.
Consider SRHWLNDVIFLSHSTSGQHW, for which the amyloid nucleation score amounted to 1.49 ± 0.18.
For NMTHEA, the amyloid nucleation score is -0.219 ± 0.63.
The result for RFYIALMDFRSMIFGS reads 5.195 ± 0.046.
The result for IFVYY reads -0.162 ± 0.4; that for REVQYWARYLSVMQLCFVSS, 2.19 ± 0.13; that for FCAMGGPSRGLVNRWFGS, -0.746 ± 0.41.
The substance RRRCFQLK returned an amyloid nucleation score of 0.294 ± 0.8.
On to WGIWFKPALFRNLYTIFAWL, for which the amyloid nucleation score entry is “inactive”.
The result for IRALDGHGFSSPWARFGPAG reads 0.755 ± 0.4; that for YVQVFRSLDYNHHAKS, -0.508 ± 0.39; that for SSLGSSGAEKSRIGYIVIER, 0.261 ± 0.77.
The same measure for RFVDEPWNTRDTDFLYV: -0.368 ± 1.1; for FFIQLSIPERFTVRVLIRRR: “inactive”; for VDVVG: 0.299 ± 0.65.
The substance TVFWSNLVRVPCRSDTSQYD displayed an amyloid nucleation score of 0.148 ± 1.
The result for SDCYDDKINVVQSKAVSITL reads 0.075 ± 0.76.
With HLNFRSGILAISFIFDLSNH, the amyloid nucleation score entry is “inactive”.
On to NDSRHTVIGYVMFKVYMYLK, for which the amyloid nucleation score result is “inactive”.
For FPSCSRGLHFKGLWTWYFPT, the amyloid nucleation score is -0.388 ± 1.1.
Substance YWVGIDRHFHGRQYCKAGA had an amyloid nucleation score of 1.11 ± 0.45.
The same measure for RYIMHL: -0.105 ± 1.1; for EVLRYGAVWMISRLVGLSLP: 0.754 ± 0.31; for FYLMPDCLWGGKSSWSFLHL: -0.873 ± 0.5.
The result for SYCVWCLYTSLLTLGQSASI reads 0.163 ± 0.33; that for DFYLFQG, 0.228 ± 0.56; that for NNRWVRKVSDYRVSC, 0.243 ± 0.64.
Substance LFRCIKDMAY displayed an amyloid nucleation score of 0.202 ± 0.51.
The result for IGVRPCTMRC reads 0.23 ± 0.29; that for SDMRCGYMLRCWLVQRVSHR, 1.48 ± 0.54; that for TDLVDPGGTKHRKDS, 0.523 ± 0.53.
Consider WCPLWITCMCLCSGLST, for which the amyloid nucleation score was determined as 8.742 ± 0.036.
The same measure for ASGEDVNPSVCFHTTAMLYQ: 0.98 ± 0.66; for WCNTRRCNSPPLVVC: 1.86 ± 0.12.
For the substance QTRTRNLLIAQVECRGRSSW, the amyloid nucleation score entry is “inactive”.
In the case of WSVGVESSKDQSLDQFGSD, the amyloid nucleation score was -0.184 ± 1.1.
The result for LQYFLGAFAILFMCLLWVLQ reads 0.381 ± 0.64; that for YLLLNYQACTMLDWNWVWVW, 5.31 ± 0.071.
As to FSMFMDIRRFMGSRWCV, the amyloid nucleation score worked out at 0.089 ± 1.1.
The same measure for SKNDCRVFPSDMHFWHDLVE: 0.351 ± 0.44.
The result for FVSIVPYRFL reads -1.56 ± 0.48; that for RSFYIAVSYMGCICIMPIRR, 2.89 ± 0.13.
Consider LVWWLSNRV, for which the amyloid nucleation score is 2.41 ± 0.088.
Regarding STYSPSSPHMLSYPFWARTP, the amyloid nucleation score was -0.269 ± 0.76.
The result for DESICCQEVGNSRVDSDEGR reads 2.94 ± 0.12; that for SKGNVV, 0.709 ± 0.42.
The same measure for AWYWN: -0.49 ± 0.33.
The result for TLAWGSGELTTLTADEDLPS reads 0.58 ± 0.19.
The substance QRPRGLNLRYTDTRWIFYGP came in with an amyloid nucleation score of 4.37 ± 0.045.
The same measure for IKLYCELCYFSNFWKIFTLR: “inactive”.
The substance GVFALSPRKHLRCDVVAWGV had an amyloid nucleation score of 0.884 ± 0.55.
The result for ELWVSQTTNEFSFVVGHVVC reads 0.025 ± 0.5; that for SCAVSIVTGRGVHSFVKAWF, 0.547 ± 0.17; that for HVMNGCGLYGQGSSRYYQTV, 0.957 ± 0.26.
Regarding YGLAFTEDATFFKVCTY, the amyloid nucleation score was -0.211 ± 0.8.
The same measure for VVSWKCIEYYVVE: -0.871 ± 0.78; for NAFSKSIFKNMTQQKDQLSE: “inactive”.
With NQQPKSLLYVSRRMQGTMIF, the amyloid nucleation score worked out at 0.089 ± 0.8.
On to LVESGQGDQSAPNRTDWFNG, for which the amyloid nucleation score was -0.437 ± 0.49.
The same measure for ISVCITILSYVRNECWFRGD: -0.432 ± 0.24; for HVLNWTYSTRIDAGGKSIRM: -0.631 ± 0.76; for QLRGLVL: 0.704 ± 0.44.
For the substance VAMVLLC, the amyloid nucleation score is 1.03 ± 0.21.
The result for YIDALSIVFCVAVIGHTPTW reads 8.753 ± 0.039.
ICSYVTVCVRLGFCKLNAMM: the amyloid nucleation score came to 0.504 ± 0.51.
As to LYWAFTTISLYLTSTFVSLM, the amyloid nucleation score was -1.66 ± 1.1.
The substance SWKGHIISSAHQQLESPSLW came in with an amyloid nucleation score of 0.345 ± 0.23.
In the case of WYSSSIGHKMWVTYGSLWGQ, the amyloid nucleation score was 0.505 ± 0.54.
Turning to RGKFHCFL, the amyloid nucleation score is -0.599 ± 0.41.
Consider LVVCKHVV, for which the amyloid nucleation score is -0.323 ± 0.56.
The same measure for YVNNLGRFCLLYRPWGMVNS: -0.196 ± 1.1; for VLTSNTANIGTLHLINIRFH: 8.173 ± 0.026; for IDYQKMLVSDCGD: 0.363 ± 0.46.
Turning to IRYVMHWFISAVILTTPPCG, the amyloid nucleation score is 0.355 ± 0.8.
The result for LCWPIFNFVFVSNPMLKLRL reads “inactive”; that for GYDGRFIASRSVYFKARIGG, -0.056 ± 0.29.
In the case of SLSKKMFRCRS, the amyloid nucleation score was 3.4 ± 0.12.
As for SALERVKSWSQGNNSIGDHI, the amyloid nucleation score is -0.418 ± 1.1.
The result for YKFLLFFYVDTSYVMLFSGF reads -0.887 ± 1.1; that for KKLKRRRVFVCEFTKEGIRG, -0.067 ± 1.1.
With MWKQWSSRTPRSVVYRGLMV, the amyloid nucleation score came out at 0.755 ± 0.21.
As for IELGFFSGTVIVVSYWEFTR, the amyloid nucleation score was -1.02 ± 1.
The same measure for LTWRYLLYPLDKFGLETWVL: 0.375 ± 0.46; for CNRYWGRPHGYFFSSSMCMV: -1.28 ± 0.75; for RLKTDRLAMIPVRPKRFPGP: 0.191 ± 0.63.
The result for IPEVQCIKFMSYSGCHIQAL reads “inactive”; that for CRFALSMYNWVLYNRNFQLI, -0.363 ± 1.1; that for PTSNPSQRSRQRHQ, 0.619 ± 0.81.
Regarding SLSWQNPCLMFMDNMADMIS, the amyloid nucleation score was -0.006 ± 0.54.
The result for LLTMVHTSSIRKESGF reads -0.118 ± 0.5; that for FVPSSLEGPLAGCYSAFIFE, “inactive”.
The same measure for FNSCDAWYCMNSQVSRTTYL: -0.624 ± 0.41; for FVWMCQLS: 6.297 ± 0.048.
MYREGSTVGLYMFPYCKDQS had an amyloid nucleation score of 0.237 ± 0.4.
The result for DWWLNGLFP reads “inactive”; that for DFYGYRKDFFLEQCPACSLY, -1.38 ± 0.78.
The same measure for ERDGSIMCSWTVSEHKSCGY: “inactive”.
The same measure for ASLIRGATKGQTVCEMALSG: -0.07 ± 0.27; for EGTFGAPFVTSLLSLRFECV: -0.85 ± 0.63; for AYGVSPI: -0.093 ± 0.35.
The substance GMWRIPYGWGPCYHSCVNQG had an amyloid nucleation score of 4.958 ± 0.047.
In the case of FCPVHSGISS, the amyloid nucleation score is -0.578 ± 0.79.
The result for YKSYSNPVLHHYSSLIPGPN reads -0.001 ± 0.41; that for VDIASLKLTSNH, -0.213 ± 0.65; that for RVSIVCWIFVDSREHFFSVK, -0.818 ± 0.55.
The result for EARVSDSVFGLVVVKTMCYV reads 5.535 ± 0.043; that for RPLCLLGRVATSKETSGRRC, 4.34 ± 0.049.
On to SFRANDNSFGCQWRRFLISG, for which the amyloid nucleation score was determined as 0.032 ± 0.42.
